Columns and labels:
TRIM14^CC-PSpry = molecular target: T1, TRIM14^CC-PSpry (human, UniProt Q14142 59-442); assay: pull-down
T1 sequence (looked up): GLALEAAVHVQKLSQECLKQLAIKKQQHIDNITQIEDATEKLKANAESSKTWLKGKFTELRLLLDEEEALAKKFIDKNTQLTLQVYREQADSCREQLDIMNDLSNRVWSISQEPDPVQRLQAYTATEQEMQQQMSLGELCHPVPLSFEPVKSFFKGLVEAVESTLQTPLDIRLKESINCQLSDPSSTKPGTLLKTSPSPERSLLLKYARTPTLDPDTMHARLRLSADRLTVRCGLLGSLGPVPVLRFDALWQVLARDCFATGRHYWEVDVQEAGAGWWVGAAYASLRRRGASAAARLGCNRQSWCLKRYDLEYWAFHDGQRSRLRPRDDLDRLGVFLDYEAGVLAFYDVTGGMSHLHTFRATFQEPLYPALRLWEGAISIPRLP

SEC-MALS = molecular target: the molecule itself; assay: SEC-MALS
MDA5ΔN = molecular target: T2, MDA5ΔN (human, UniProt Q9BYX4 287-1025); assay: native gel or EMSA
T2 sequence (looked up): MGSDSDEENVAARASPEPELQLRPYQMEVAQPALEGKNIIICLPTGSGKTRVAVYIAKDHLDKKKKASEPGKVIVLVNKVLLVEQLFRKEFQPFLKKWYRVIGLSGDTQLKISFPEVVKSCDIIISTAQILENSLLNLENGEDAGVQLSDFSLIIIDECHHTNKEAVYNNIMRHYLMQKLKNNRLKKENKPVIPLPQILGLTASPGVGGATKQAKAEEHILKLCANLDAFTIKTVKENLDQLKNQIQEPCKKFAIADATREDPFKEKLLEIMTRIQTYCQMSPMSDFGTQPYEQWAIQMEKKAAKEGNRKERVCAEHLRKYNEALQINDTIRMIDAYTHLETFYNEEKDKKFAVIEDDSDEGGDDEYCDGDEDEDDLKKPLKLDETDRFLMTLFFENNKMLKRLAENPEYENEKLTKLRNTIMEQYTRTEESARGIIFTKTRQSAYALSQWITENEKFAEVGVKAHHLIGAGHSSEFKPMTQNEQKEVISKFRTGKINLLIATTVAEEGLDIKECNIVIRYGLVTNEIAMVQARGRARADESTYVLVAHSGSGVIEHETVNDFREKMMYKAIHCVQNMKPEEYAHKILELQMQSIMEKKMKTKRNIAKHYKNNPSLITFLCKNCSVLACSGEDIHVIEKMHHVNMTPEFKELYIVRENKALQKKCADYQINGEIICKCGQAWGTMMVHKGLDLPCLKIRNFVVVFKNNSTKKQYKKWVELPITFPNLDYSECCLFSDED

LGP2 = molecular target: T3, LGP2 (UniProt Q96C10 1-678); assay: EMSA
T3 sequence: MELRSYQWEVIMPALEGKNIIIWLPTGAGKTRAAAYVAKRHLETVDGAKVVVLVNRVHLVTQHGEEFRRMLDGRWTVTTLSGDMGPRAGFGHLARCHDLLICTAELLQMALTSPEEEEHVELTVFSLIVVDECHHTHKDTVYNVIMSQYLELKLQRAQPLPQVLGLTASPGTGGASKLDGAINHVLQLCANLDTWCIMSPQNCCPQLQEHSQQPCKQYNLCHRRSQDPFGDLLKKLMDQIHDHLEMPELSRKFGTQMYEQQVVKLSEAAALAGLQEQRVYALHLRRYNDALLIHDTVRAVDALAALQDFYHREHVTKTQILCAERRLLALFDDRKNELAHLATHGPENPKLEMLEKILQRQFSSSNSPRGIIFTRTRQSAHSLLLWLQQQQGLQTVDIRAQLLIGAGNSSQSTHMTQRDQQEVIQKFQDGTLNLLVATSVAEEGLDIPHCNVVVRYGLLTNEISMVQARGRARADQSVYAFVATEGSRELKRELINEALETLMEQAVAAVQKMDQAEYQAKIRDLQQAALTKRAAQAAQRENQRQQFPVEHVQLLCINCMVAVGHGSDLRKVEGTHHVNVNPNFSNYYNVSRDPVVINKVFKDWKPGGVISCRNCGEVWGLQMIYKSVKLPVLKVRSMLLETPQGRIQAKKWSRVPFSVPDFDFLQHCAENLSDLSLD

B1: GST-LGP2^Hel2i2 (domain or fragment, human, UniProt Q96C10 211-487, looked up)
chain: SQQPCKQYNLCHRRSQDPFGDLLKKLMDQIHDHLEMPELSRKFGTQMYEQQVVKLSEAAALAGLQEQRVYALHLRRYNDALLIHDTVRAVDALAALQDFYHREHVTKTQILCAERRLLALFDDRKNELAHLATHGPENPKLEMLEKILQRQFSSSNSPRGIIFTRTRQSAHSLLLWLQQQQGLQTVDIRAQLLIGAGNSSQSTHMTQRDQQEVIQKFQDGTLNLLVATSVAEEGLDIPHCNVVVRYGLLTNEISMVQARGRARADQSVYAFVATEGS
binding result (TRIM14^CC-PSpry): binds

B2: TRIM65 CC-PSpry (domain or fragment, human, UniProt Q6PJ69 125-517, looked up)
chain: HERALLDAERLKREAQLRASLEVTQQQATQAEGQLLELRKQSSQIQNSACILASWVSGKFSSLLQALEIQHTTALRSIEVAKTQALAQARDEEQRLRVHLEAVARHGCRIRELLEQVDEQTFLQESQLLQPPGPLGPLTPLQWDEDQQLGDLKQLLSRLCGLLLEEGSHPGAPAKPVDLAPVEAPGPLAPVPSTVCPLRRKLWQNYRNLTFDPVSANRHFYLSRQDQQVKHCRQSRGPGGPGSFELWQVQCAQSFQAGHHYWEVRASDHSVTLGVSYPQLPRCRLGPHTDNIGRGPCSWGLCVQEDSLQAWHNGEAQRLPGVSGRLLGMDLDLASGCLTFYSLEPQTQPLYTFHALFNQPLTPVFWLLEGRTLTLCHQPGAVFPLGPQEEVLS
stoichiometry N (SEC-MALS): 2
Kd (MDA5ΔN): 0.171 µM

B3: 15 bp dsRNA (dsRNA)
RNA 1: AGGGCCCGGGAUGCU
RNA 2: AGCAUCCCGGGCCCU
binding result (LGP2): binds

Reference: PMC8183676 (Molecular cell, 2020)
